Assays:
[1] = tested on: other members of the galectin family; conditions: cited from earlier work
[2] = tested on: HUVEC tube formation; assay: Capillary-like tube formation on Matrigel (HUVEC); type: cell-based, human; conditions: HUVEC
Procedure: (§1) Cells were incubated at 37° C. for periods ranging from 0 to 24 h and were visualized by phase-contrast microscopy. Capillary-like tubular structures were scored by counting the number of tubules (closed areas) per well in a phase-contrast microscope (Nikon E-100). For migration assays, ECs (4×10^4/well) transfected or not with specific siRNA were resuspended in M199 medium supplemented with 1% FCS. Cells were placed into the top chamber of the insert while the bottom well was filled with Gal1 or VEGF-A in the absence or presence of the above mentioned stimuli. After 24 hours, inserts were stained with crystal violet (Sigma) and analyzed in an inverted microscope. For each filter, 4 images were obtained and cells were counted with ImageJ software v1.46r (NIH). […] After 24 hours, cells were incubated in the presence of 0.8 μCi [^3H]-thymidine (NEN Dupont). Cells were then harvested and radioactivity was measured in a 1414 Liquid Scintillation Counter (Perkin Elmer). Tumor-associated ECs were identified by flow cytometry using Alexa Fluor 647-conjugated anti-CD34 (RAM34; eBioscience) and FITC-conjugated anti-CD45 (J33; Immunotech). Microvessel density (MVD) was determined by counting the number of CD31^+ microvessels present in 10 mm^2. Ten random 400× fields were counted.

[3] = tested on: VEGFR2; assay: Immunoblot of VEGFR2 phosphorylation in HUVEC; type: cell-based, human
Procedure: Cells were lysed and analyzed by the human […] RTK Signaling Antibody Array (Cell Signaling) following the manufacturer's directions. For co-immunoprecipitation, 500 μg lysates were incubated with 2 μg anti-VEGFR2 (55B11; Cell Signaling) Ab. The immunocomplexes were captured with protein G PLUS-Agarose (Santa Cruz) and processed for immunoblotting (according to methods described in Ilarregui et al., Nat. Immunol. 10, 981-99 (2009)). Blots were probed with anti-Erk1/2 (C14), anti-phospho-Erk1/2 (E4), anti-actin (I-19), anti-Gal3 (B2C10), anti-Gal4 (Q20), anti-Gal7 (H8) or anti-Gal8 (D18) Ab (all from Santa Cruz) or anti-Akt (9272), anti-phospho-Akt (9271 S), anti-VEGFR2 (55B11), anti-phospho-VEGFR2 (19A10) Ab (all from Cell Signaling) or a rabbit anti-Gal1 polyclonal IgG (1.5 μg/ml) (as described in Rubinstein et al., Cancer Cell 5:3, 241-51 (2004)).

[4] = biological target: T1, Gal1 (Mus musculus, UniProt P16045); assay: ELISA of Gal1 secretion by tumors inoculated in syngeneic mice; type: in vivo; conditions: B16-F0, LLC1 and R1.1 tumors, day 16
T1 construct: from tissue; host or cells: B16-F0, LLC1 and R1.1 tumours grown in syngeneic mice
Procedure: (§2) Gal1 was determined using an in-house ELISA (according to the methods described in Croci et al., J. Exp. Med. 209:11, 1985-2000 (2012). The mouse IFN-γ (DY485), mouse IL-17 (DY421), mouse TGF-β1 (DY1679), mouse Gal3 (DY1179) and human VEGF-A (DY293B) ELISA sets were from R&D. The mouse IL-10 (555252) set was from BD Biosciences, the mouse bFGF (Ab100670) set was from Abcam, and the mouse Gal8 (SEA308Mu) set was from USCN Life Science. Optical densities were determined at 450-550 nm in a Multiskan MS microplate reader (Thermo Electron Corporation).
(§3) Wild-type or Gal1 knockdown B16-F0, LLC1 and R1.1 (2.5 or 5×10^5 cells) were subcutaneously inoculated into 6- to 8-week old WT, Mgat5^−/−, St6gal1^−/− or Rag1^−/− B6 mice. CT26 (5×10^5) cells were injected into syngeneic BALB/c mice. When tumors reached 100 mm^3, mice were inoculated intraperitoneally with anti-VEGF (B20-4.1.1; 5 or 10 mg/kg), anti-Gal1 (F8.G7; 5, 10 or 15 mg/kg) or isotype control mAb twice weekly. Axitinib (30 mg/kg; Sigma) was administered every two days by oral gavage. Mice were sacrificed when tumors reached a volume greater than 2.5 cm^3. Two weeks after tumor inoculation, TDLN cells (5×10^5/well) were re-stimulated ex vivo for 72 hours with lysates of B16-F0 or LLC1 cells and analyzed for proliferation and cytokine production (as described in Rubinstein et al., Cancer Cell 5:3, 241-51 (2004)).

[5] = tested on: B16-F0 melanoma; assay: In vivo tumor model, B16-F0; design: species or system mouse; conditions: single administration of F8.G7 mAb, 10 mg/kg
[6] = tested on: B16-F0 tumor parenchyma; assay: Adoptive transfer of CFSE-labeled T cells / fluorescent beads, influx to tumor and spleen; type: in vivo, mouse
Procedure: (§4) For intracellular cytokine staining, TDLN cells were made permeable with Perm2 solution (BD Biosciences) and were labeled with fluorescent-conjugated mAb anti-IFN-γ (XMG1.2; BD Biosciences), anti-IL-17 (TC11-18H10; BD Biosciences), anti-IL-10 (JESS-16E3; eBioscience), anti-CD8 (H35-17.2; eBioscience) and anti-CD4 (GK1.5; BD Biosciences). Cells were analyzed on a FACSCanto II flow cytometer (BD Biosciences). For adoptive transfer, splenic T cells (5×10^6) from tumor-bearing mice were labeled with CFSE (Molecular Probes) and injected through the tail vein into tumor-bearing recipient mice treated with F8.G7 mAb or isotype control. APC-fluorescent beads (7-10 μm; BD Biosciences) were injected as controls. CFSE^+ cells or APC^+ beads were analyzed after 24 h or 15 min respectively by flow cytometry in the tumor parenchyma and spleen.

[7] = tested on: LLC1 Lewis lung carcinoma; assay: In vivo tumor model, LLC1; design: species or system mouse
Procedure: as §1, with “Tumor-associated ECs were identified by flow cytometry using Alexa Fluor 647-conjugated anti-CD34 (RAM34; eBioscience) and FITC-conjugated anti-CD45 (J33; Immunotech).” left out
Mice were anesthetized and intracardiacally perfused with PBS and 4% (w/v) paraformaldehyde and tissues were embedded in OCT. […] Pericyte maturation was assessed using Ab specific for α-SMA (1A4; Dako), desmin (D33; Dako), PDGFR-β (APB5; Biolegend) and RGS5 (HPA001821; Prestige Sigma). […]

[8] = tested on: B16-F0 melanoma; assay: In vivo tumor model, B16-F0; design: species or system mouse
Procedure: (§5) Mice were anesthetized and intracardiacally perfused with PBS and 4% (w/v) paraformaldehyde and tissues were embedded in OCT. To visualize the vasculature, mice were intravenously injected with FITC-conjugated Griffonia simplicifolia Lectin-1 (GLS-1B4; Vector) prior to heart perfusion and fixation. Pericyte maturation was assessed using Ab specific for α-SMA (1A4; Dako), desmin (D33; Dako), PDGFR-β (APB5; Biolegend) and RGS5 (HPA001821; Prestige Sigma). The fraction of pericyte coverage was calculated as the ratio of α-SMA area to the FITC-GLS-1B4 or CD31-stained area using a specific anti-CD31 Ab (Mec13.3; BD Biosciences). Hypoxia was detected after injection of pimonidazole hydrochloride for 30 min following immunostaining with Hypoxyprobe-1 plus kit (Natural Pharmacia). Tumor-infiltrating cells were analyzed using anti-CD8 (H35-17.2; e-Bioscience) and anti-F4/80 (BM8; eBioscience) mAb.
as §3

[9] = tested on: HUVEC migration; assay: EC migration assay (HUVEC); type: cell-based, human
Procedure: as §1

[10] = tested on: R1.1 T-cell lymphoma; assay: In vivo tumor model, R1.1; design: species or system mouse
Procedure: as §1, with “counted. […]” for “counted.”

[11] = tested on: TDLN cells; assay: TDLN cell responses of tumor-bearing mice (ex vivo restimulation, ELISA, flow cytometry); type: in vivo, mouse
Procedure: as §2, §4, §5
Wild-type or Gal1 knockdown B16-F0, LLC1 and R1.1 (2.5 or 5×10^5 cells) were subcutaneously inoculated into 6- to 8-week old WT, Mgat5^−/−, St6gal1^−/− or Rag1^−/− B6 mice. CT26 (5×10^5) cells were injected into syngeneic BALB/c mice. […] Two weeks after tumor inoculation, TDLN cells (5×10^5/well) were re-stimulated ex vivo for 72 hours with lysates of B16-F0 or LLC1 cells and analyzed for proliferation and cytokine production (as described in Rubinstein et al., Cancer Cell 5:3, 241-51 (2004)).

[12] = F8.G7 10 mg/kg combined with anti-VEGF mAb, day 7
[13] = single administration of F8.G7 mAb, 10 mg/kg

T1 sequence (P16045 whole entry): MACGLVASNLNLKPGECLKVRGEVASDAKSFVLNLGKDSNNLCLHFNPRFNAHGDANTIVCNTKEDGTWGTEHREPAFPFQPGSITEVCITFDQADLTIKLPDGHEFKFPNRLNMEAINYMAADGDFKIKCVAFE

B1: F8.G7: mouse anti-Gal1 blocking (neutralizing) monoclonal antibody; hybridoma 8F4.F8.G7, ATCC deposit PTA-10535; vH SEQ ID NO: 6, vK SEQ ID NO: 11 (antibody, V domains shown)
VH: EVQLQQSVAEFVRPGASVRLSCTASGFNIKNTYIHWVRQRPEQGLEWIGKIDPANGNTKYVPEFQGKATMTADTSSNTVYLHLSSLTSEDTAIYYCVDGYYGWYFAVWGTGTTVTVSS
VL: QAVVTQESALTTSPGETVTLTCRSSTGAVTTSNYANWVQEKPDHLFTGLIGATNNRAPGVPARFSGSLIGDKAVLTITGAQTEDEAIYFCALWYRNHFIFGSGTKVTVL
modifications: Anti-human
- binding to other members of the galectin family [1]: did not bind
- tube formation induced by Gal1 [2]: specifically prevented
- Gal1-induced VEGFR2 phosphorylation [3]: inhibited to levels comparable to those attained by MGAT5 silencing
- amounts of secreted Gal1 [4]: dropped substantially
- tumor growth and vascularization [5]: sustained inhibition of tumor growth and vascularization
- T cells reaching tumor parenchyma ([6]; CFSE-labeled T cells, vs control isotype): greater number
- number of CFSE+ T cells in spleens ([6]; vs control isotype): no differences
- access of fluorescently-labeled beads to the tumor parenchyma ([6]; vs control-treated mice): increased access
- anti-VEGF resistance (tumor growth inhibition and reduced vascularization) [7, 12]: successfully circumvented
- tumor growth and vascularization [7, 13]: sustained inhibition of tumor growth and vascularization
- therapeutic benefit of anti-VEGF ([8]; F8.G7 10 mg/kg combined with anti-VEGF mAb): slightly enhanced
- remodeling of tumor vasculature ([8]; days 4-5 post treatment): substantial remodeling of the vasculature
- pericyte coverage of tumor vessels ([8]; days 4-5 post treatment, vs control mAb): greater coverage by pericytes
- anti-tumor effect ([8]; immunodeficient B6.Rag1−/− mice): only a partial anti-tumor effect
- concentrations at which active ([8]; in vivo tumor models): 5 to 10 mg/kg
- tumor hypoxia (pimonidazole adducts) ([8]; mouse, in vivo): markedly alleviated
- tumor growth at different doses ([8]; treated when tumors reached 100 mm^3): dose-dependent effect
- Desmin expression in pericytes ([8]; vs control-treated tumors): no significant variations
- PDGFR-β expression in pericytes ([8]; vs control-treated tumors): lower expression
- RGS5 expression in pericytes ([8]; vs control-treated tumors): lower expression
- α-SMA expression in pericytes ([8]; vs control-treated tumors): higher expression
- EC migration induced by Gal1 [9]: specifically prevented
- anti-VEGF resistance (tumor growth inhibition and reduced vascularization) [10, 12]: successfully circumvented
- tumor growth and vascularization [10, 13]: sustained inhibition of tumor growth and vascularization
- T-cell proliferation ([11]; mice bearing B16-F0 tumors): stimulated
- tumor-specific IL-10 production ([11]; mice bearing B16-F0 tumors): blunted
- immunological phenotype ([11]; mice inoculated with LLC1): confirmed
- number of TDLN and tumor-infiltrating IFN-γ-producing CD8+ T cells ([11]; vs control-treated mice): dramatic increase
